Reference: paper PMC13480645 (PLOS Pathogens, 2026)
Residue numbers refer to the chain shown, from its start.

B1: eCC65.1-8 (antibody, V domains shown)
VH: VQLVQSGAEVKKPGASVKVSCKASGYEFTSQYMHWVRQAPGQGLEWMGIIDPSGGGASYAQKFRDRVSMTRDTPTSTVYMELRSLRSEDTAVYYCASLWFGNPSWRDYWGQGTLVTVSS
VL: VMTQSPGTLSLSPGERATLSCRASQTVNSNYLAWYQQKPGQAPRLLIYHASSRATGIPDRFSGSGSGTDFTLTISRLEPEDFAVYYCQQYQSSPPLFTFGPGTKLEIK
B2: eCC65.1-4 (antibody, V domains shown)
VH: B1 VH with E27T, T29E, S53K, A57T, G101E, N102T
VL: B1 VL with S29K, H49G, Q89T, Q91G
B3: eCC65.1-1 (antibody, V domains shown)
VH: B1 VH
VL: B1 VL with Q91G, S92A
B4: eCC65.1-10 (antibody, V domains shown)
VH: B1 VH with E27D, A57T, G101E, R106S
VL: B1 VL with S29K, Q91G, S92A
B5: eCC65.1-13 (antibody, V domains shown)
VH: EVQLVQSGAEVKKPGASVKVSCKASGYTFTSQYMHWVRQAPGQGLEWMGIIDPSGGGTSYAQKFRDRVSMTRDTPTSTVYMELRSLRSEDTAVYYCASLWFENPSWRDYWGQGTLVTVSS
VL: B1 VL with S29K, H49G, Q91G, S92A
B6: eCC65.1-11 (antibody, V domains shown)
VH: B1 VH
VL: B1 VL with Q25S, Q91G, S92A
B7: eCC65.1-6 (antibody, V domains shown)
VH: B5 VH
VL: B1 VL with S29K, Q91G
B8: eCC65.1-3 (antibody, V domains shown)
VH: B1 VH with E27T, S53E, A57T, G101E, N102Q
VL: B1 VL with S29K, Q91G, S92A
B9: eCC65.1-5 (antibody, V domains shown)
VH: B1 VH with S24T, E27T, A57T, L98I, G101E
VL: B1 VL with S29K, H49G, Q91G
B10: eCC65.1-2 (antibody, V domains shown)
VH: B1 VH with S24T, E27T, S53K, A57T, G101E, R106T
VL: B1 VL with S29K, Q91G
B11: eCC65.1-7 (antibody, V domains shown)
VH: B1 VH with E27S, A57T, G101E
VL: B1 VL with S29K, Q91G, S92A
B12: eCC65.1-9 (antibody, V domains shown)
VH: B1 VH with E27D, S53E, A57T, G101E, N102K
VL: B1 VL with N28T, Q91G, S93K
B13: eCC65.1-12 (antibody, V domains shown)
VH: B5 VH
VL: DVVMTQSPGTLSLSPGERATLSCRASQTVNKNYLAWYQQKPGQAPRLLIYHASSRATGIPDRFSGSGSGTDFTLTISRLEPEDFAVYYCQQYGASPPLFTFGPGTKLEIK

How the values were obtained:
SARS-CoV-2 S-2P protein [1] = biological target: T1, SARS-CoV-2 S-2P protein (SARS-CoV-2, ancestral (Wuhan-Hu-1) …, UniProt P0DTC2, stabilised); test: BLI; details: both partners purified
SARS-CoV-2 S-2P protein [2] = biological target: T1, SARS-CoV-2 S-2P protein; test: cell-based or functional assay

Binder | Kd (SARS-CoV-2 S-2P protein [1]) [pM] | kon (SARS-CoV-2 S-2P protein [1]) [M⁻¹ s⁻¹] | IC50 of neutralisation of SARS-CoV-2 pseudovirus (HeLa-hACE2 cells) (SARS-CoV-2 S-2P protein [2]) [µg/mL]
B1 | 945 | 258000 | 3.95
B2 | 13.6 | 287000 | 1.84
B3 | 843 | 236000 | 5.79
B4 | < 1 | 278000 | 1.86
B5 | 81.9 | 256000 | 2.41
B6 | 801 | 249000 | 5.26
B7 | 47.2 | 261000 | 2.98
B8 | < 1 | 289000 | 4.67
B9 | < 1 | 286000 | 1.63
B10 | < 1 | 283000 | 2.05
B11 | 157 | 270000 | 3.01
B12 | 10.2 | 306000 | 2.6
B13 | < 1 | 273000 | 5.77
